Results: the Immune Epitope Database (IEDB)

Columns and labels:
Assay in all cases: IEDB peptide-MHC binding, purified MHC/competitive/radioactivity; ≥ and ≤ were set here for values at or beyond the usual limits of such assays
Conditions in all cases: source organism: Bordetella pertussis
HLA-B*07:02 = target: HLA-B*07:02
HLA-B*35:01 = target: HLA-B*35:01
HLA-B*44:03 = target: HLA-B*44:03
HLA-A*02:01 = target: HLA-A*02:01
HLA-B*57:01 = target: HLA-B*57:01
HLA-B*53:01 = target: HLA-B*53:01

Q: How did the IC50 (HLA-B*07:02) turn out when AAAEVAGAL was run?
A: 6.11 µM

Q: What about the IC50 (HLA-B*35:01) of the same sequence?
A: 69.9 µM

Q: What about the IC50 (HLA-B*44:03) of the same sequence?
A: 49.4 µM

Q: For MEYFKTPLP, which IC50 (HLA-B*44:03) is on record?
A: 28.1 µM

Q: For YDTGDLIAY, which IC50 (HLA-B*35:01) is on record?
A: 69.9 µM

Q: Which IC50 (HLA-A*02:01) does the source give for EHRMQEAVE here?
A: ≥ 78.1 µM

Q: With ECSGKQDCP as the sequence, how does the IC50 (HLA-B*07:02) read?
A: 69.6 µM

Q: With IVIPPKALF as the sequence, how does the IC50 (HLA-B*57:01) read?
A: 45.6 µM

Q: How did the IC50 (HLA-B*44:03) turn out when FETYALTGI was run?
A: 35.8 µM

Q: AGKSLKKKN was tested. Which IC50 (HLA-A*02:01) did it give?
A: ≥ 78.1 µM

Q: How did the IC50 (HLA-B*35:01) turn out when VTMRYLASY was run?
A: 35.4 µM

Q: And the IC50 (HLA-B*57:01)?
A: 0.0142 µM

Q: VAAAADLAL was tested. Which IC50 (HLA-B*53:01) did it give?
A: 21.7 µM

Q: How did the IC50 (HLA-B*35:01) turn out when APPGAGFIY was run?
A: 16.5 µM

Q: Which IC50 (HLA-B*07:02) does the source give for VPFCFGKDL here?
A: 12.1 µM

Q: What does the source list for ESAEGRKIF?
A: IC50 (HLA-B*44:03): 36.7 µM; IC50 (HLA-B*57:01): ≥ 70.4 µM

Q: How did the IC50 (HLA-B*53:01) turn out when IPFQRALRL was run?
A: 2.3 µM
